Reference: a protein production outcome set (Wang et al. 2014)

assay: label from the status in PepcDB records

Sequence | protein production
MDSMILGRYIPGDSIVHRLDPRSKLLAMMLLILIVFWANNPLTNLILFIATGIFIALSGVSLSFFIQGLKSMFFLIAFTTIFQLFFISNGNVLFEFSFVRITDYALQQAGIIFCRFVLIIFFSTLLTLTTMPLSLASAVEALLAPLKRVKVPVHEIGLMLSMSLRFVPTLMDDTTRIMNAQKARGVDFGEGSIVQKVKAMIPILIPLFATSLKRADSLAIAMEARGYQGGKGRSQYRQLKWTLKDTLTILVILVLGCCLFFLKS | failed
MDSMKLYDAIIGTVEKHIAPIAAKVGNQPHVRAMRDGFIVAMPFIIVGSFILIFAFPPFAEDTTFTFGRLWLDFATTHFDTIMMPFNMSMGIMTIFVSLGVAYSLAKAYKMDGITSAVLSLMCFLLVAAPAQDGSLAMKHMGGTGIFTAVMCAFFAVELYRFMKKHNITIRMPEQVPPAIARSFEVLLPVLAVFVTLYPLSIFVQTQYDMLIPDAVMAMFKPLISASNTLPAIIGALLMCQLLWFAGIHGAAIVVGLLSPIFLTNISGNIDAFVAGQPVPNIFTQPFWDFYIFIGGSGATLALVLLMSFSRSVHLKSIGRMSAVPGFFQINEPVIFGSPIVMNPTLFIPFVFAPVINATIAYFAVHLGFVGMGVATTPWTTPAIIGASWGSGWTFSPVLLVVGLLILDLLIYFPFFKMFEKQMLEQELPTTKETKQAEQPAGEGVTA | failed
MDSNTFVSTNIKKERNVDSVLSKGKPVSILLMGTDTGELGRNWVGRTDSMILVIINPKTKKTLLMSIPRDSMVSIPGYEYTFPQKINAAYEYPANGKGHPETSIKTVEKWLNVPIDFYGIVNMEALEQITNKAGGISVKSPLTFTFSEDTAHDYGNNLYTFTKGSTKYKYYKNGSTLTKTSNIMNGAAALAFTRMRYNDPLGDYGRTLRQRLVFEAIAKKATVLIPQIVNKKFLNSISKQGKTDLTFNDMVTLASNYRKALKNIKSDSVQGTDYEYSGISYQVVASKEKQRVTNKIRKFLGLKKAKSGPLYASKVTNGVVILEHHHHHH | failed
MDSRKALDGLAVTLMIILCLTWGLQQVALKATSAEIAPLMQIAIRSGISALLVGIMMAVRGERLSLAGGMWRPGLAVGFLFALEYLLVGEGLRHTTASHMVIFLYTAPVFAAIGLHLKLRSERLRPVQWFGIALAFGGIVVSFYGRGGHTASLSVASVIWGDVLGLAAGMAWGMTTVVIRTSRLAACSATQTLLFQLLGAFILLLPAAAVLDQTYFNPTRLGWACLIFQTLIVSFASFLVWFWLLRHYVASRLGVLSFMTPLFGVALGAWLLNEPLERGFLAGALLVLTGIILVSGHGWLRQLGNGAGAAVQEQAREPDLP | failed
MDSVVSDVSDLVEPDEELKAWQTDRTRAPIATKIVVAGGFGAGKTTLVTAVSEITPLQTEALMTQASEDTDDLTGTPDKLTTTVAMDFGRITLDDDLVLYLFGTPGQQRFWFMWDDLVRGAIGAVVLADTRRLSDCFPALDYFESCGLPYVVAVNHFDGSEKFEPEDVREALTVPAHIPVMIMDARRRISVIETLLALVGHALEVSPELEHHHHHH | not failed
MDTELMKLDVHVTAWSRTPSSSGFLNSVMISRDRDFEEFIINDRDGSVTSLGSYQNPSRGPDPLIFLDFRNFEPNYVYQLLLSQFHDHVLSEHIADQIGYTFGTCNSPTSTTDLDQESEEEE | failed
MDTLEPTAVDTHVSAEQILRDVYKKGQKARGSTNIDILDLEELREYQRRKRTEYEGYLKRNRLDMGQWIRYAQFEIEQHDMRRARSIFERALLVDSSFIPLWIRYIDAELKVKCINHARNLMNRAISTLPRVDKLWYKYLIVEESLNNVEIVRSLYTKWCSLEPGVNAWNSFVDFEIRQKNWNGVREIYSKYVMAHPQMQTWLKWVRFENRHGNTEFTRSVYSLAIDTVANLQNLQIWSDMEVAKLVNSFAHWEAAQQEYERSSALYQIAIEKWPSNQLLKAGLLDFEKQFGDINSIEETISYKRKMEYETILSNNAYDYDTWWLYLDLISESFPKQIMQTFEKAIVDSRPKELSKNVQWKRYIYLWMRYICYVELELENSLLEEELFQRLIDDIIPHKHFTFSKIWLMYAKFLIRHDDVPKARKILGKAIGLCPKAKTFKGYIELEVKLKEFDRVRKIYEKFIEFQPSDLQIWSQYGELEENLGDWDRVRGIYTIALDENSDFLTKEAKIVLLQKYITFETESQEFEKARKLYRRYLELNQYSPQSWIEFAMYQTSTPTEQQLLDLAKLQSENVDEDIEFEITDENKLEARKVFEEAIVFFKEKDDKQGRLSILEALKDYEETYGTELDQETVKKRFPKVIKKVRLQNGVEEEFVDYIFPDDIDDDKPKPSKFLELAKKWKQEQAL | failed
MDTLQFQKNPETAAKMSAYMKHQFVFAGIPAPERQALSKQLLKESHTWPKEKLCQEIEAYYQKTEREYQYVAIDLALQNVQRFSLEEVVAFKAYVPQKAWWDSVDAWRKFFGSWVALHLTELPTIFALFYGAENFWNRRVALNLQLMLKEKTNQDLLKKAIIYDRTTEEFFIQKAIGWSLRQYSKTNPQWVEELMKELVLSPLAQREGSKYLAKASE | not failed
MDTMRSLRFISAEALVSHPQVARQSLDSVAHNLYPLLFKASYLLEQAEVTRAVLGRWPLEEFRLGALLGPGADHPQDLRDRTCRACLEALVRGLADHVLQDRSRRRLRVADLTGIRDVQVQRCPCGRALGRWGRTQLLARTCCELQAEPLAAGRPVEVLADLFVTEGNFEAVVQALRPAGPAPLRVHCPSFRADSLSPSQLLHVLRLAGPGALRKLEVVHNVRLHAGHVQQLLAQVGFPRLASLTLPTKAFDAPPTYASTPDGEDPLLASIARELSKMAQLTELSVAFSTLTGKIPTLLGPLQTPLRVLDLANCALNHTDMAFLADCAHAAHLEVLDLSGHNLVSLYPSTFFRLLSQASRTLRILTLEECGIVDSHVGMLILGLSPCHRLRQLKFLGNPLSARALRRLFTALCELPELRCIEFPVPKDCYPEGAAYPQDELAMSKFNQQKYDEIAEELRAVLLRADREDIQVSTPLFGSFDPDIQETSNELGAFLLQAFKTALENFSRALKQIE | failed
MDTPILIPTDMNRIPFFYLLQISDPLFPIGGFTQSYGLETYVQKGIVHDAETSKKYLESYLLNSFLYNDLLAVRLSWEYTQKGNLNKVLELSEVFSASKAPRELRAANEKLGRRFIKILEFVLGENEMFCEMYEKVGRGSVEVSYPVMYGFCTNLLNIGKKEALSAVTYSAASSIINNCAKLVPISQNEGQKILFNAHGIFRRLLERVEELDEEYLGSCCFGFDLRAMQHERLYTRLYIS | failed
MDTPLGSVLYITLGCAKNEVDTDRMRSLLTAAGYEEAFDPQDADIAIVNTCSFLASATSESIETTLELANEVQDGVRSCPIVMCGCVPSRYGDDLPDELPEVAAFVKADEEDGIVAVIDGVLGVEREIAAYIPQVKRTVEGAVAYVKISDGCNRFCSFCMIPYIRGRYHSRNSESIISEVRDLVAGGVREIVLIGQDTGIWGTDFADEDVADGSPRNLAQLLRAVAEAVRPHNVWVRVLYLQPEGMTDELIDTIRDTPEVLPYIDIPVQHCDARILKAMRRSGSRQELEDLFRDLRERIPGIVIRSTAMVGFPTETDDEFRDLIDFMDTVGFDYTSVFAYSREEGSLAAKMEGQVDEEVKLERAQEAMDLAESLGFAATAAHVGERAQVIVDGIEETEDGAELIGHAWFQAPDSDGAVHLDASEASVGDILTVEFTDSFCYELIGHVVE | failed
MDTSDLFASCRKGDVGRVRYLLEQRDVEVNVRDKWDSTPLYYACLCGHEELVLYLLANGARCEANTFDGERCLYGALSDPIRRALRDYKQVTASCRRRDYYDDFLQRLLEQGIHSDVVFVVHGKPFRVHRCVLGARSAYFANMLDTKWKGKSVVVLRHPLINPVAFGALLQYLYTGRLDIGVEHVSDCERLAKQCQLWDLLSDLEAKCEKVSEFVASKPGTCVKVLTIEPPPADPRLREDMALLADCALPPELRGDLWELPFPCPDGFNSCPDICFRVAGCSFLCHKAFFCGRSDYFRALLDDHFRESEEPATSGGPPAVTLHGISPDVFTHVLYYMYSDHTELSPEAAYDVLSVADMYLLPGLKRLCGRSLAQMLDEDTVVGVWRVAKLFRLARLEDQCTEYMAKVIEKLVEREDFVEAVKEEAAAVAARQETDSIPLVDDIRFHVASTVQTYSAIEEAQQRLRALEDLLVSIGLDC | failed
MDVAGDEAGGTAGARDRVADRAAGRAVALGAIALLVAGALEAWAVLGGLEPARFWDTPSYLHDAGHLARGELPPLGLRMPGYPAFVALVGGRGPDLGRVAGAQAALWVASVVLAYALVRRLTGSLAAALAAGLAALSFVDLLFMAVTIYSETLCLALVCGAALATVAAFGGRTRAAVAGAGLLWAAAALVRPIFLASAGVYLLAALLLAARRALARRDVALAWAAVAAVVLAMASLNLARAGRFEFSPGAGLSLLNHVGHPAVYRHLPPDQAPIREVYERLAAEQGREWIGWWRAVGPLAQVVAPELAEAAGRLEVTAAEPVAERVALRALAAVPGGWLRVWADAAEQLLGRFALQLGWSARPDGPPQWPPGAWQHRAARDAEAAWRVGMPWLSAAALLLPPLALWLRARRRRRGDDVPGPAGAGAALATLWAIAGVNAGLSPALEPWAGQMRYRFPIQHLLLGLAIGAAVLAARALRPARGLAGAGSPAPGAGAARRT | failed
MDVFATGAGQVDPAKVLSPGLVYDATTEDYLKFIQGTGMDLGMEGLGTTQARDMNVPSFALGNLAGKIEVTRTLTALTPGTYRASVNVPGVNVKVTPSVLTFGAPGEKKTFKVQFENNNAALGKFAMGSLNWQGANKTVTSPIAVRPLEHHHHHH | failed
MDVGMPFSGPVSFPLLVIEEELPFRIHNICSETGKFDVVLDSITNMPKYGLKIFAGVRIDMYSILGDESSGRIYTLRKGTLADFNARILAYYDKAQVINADGDTCIKMANEGYSALVGNEISIGKSFRNRMKELGLDLPSCAMASTRRIDEVIEAYEQGIDFIKNNHERAAEIISKKSGYYSEEVMKKIIGIYGHEVTKKRAELVGSRELYSRVVPELNDIEIIG | not failed
MDVLSPGQGNNTTSPPAPFETGGNTTGISDVTVSYQVITSLLLGTLIFCAVLGNACVVAAIALERSLQNVANYLIGSLAVTDLMVSVLVLPMAALYQVLNKWTLGQVTCDLFIALDVLCCTSSILHLCAIALDRYWAITDPIDYVNKRTPRRAAALISLTWLIGFLISIPPMLGWRTPEDRSDPDACTISKDHGYTIYSTFGAFYIPLLLMLVLYGRIFRAARFRIRKTVKKVEKTGADTRHGASPAPQPKKSVNGESGSRNWRLGVESKAGGALCANGAVRQGDDGAALEVIEVHRVGNSKEHLPLPSEAGPTPCAPASFERKNERNAEAKRKMALARERKTVKTLGIIMGTFILCWLPFFIVALVLPFCESSCHMPTLLGAIINWLGYSNSLLNPVIYAYFNKDFQNAFKKIIKCKFCRQ | failed
MDVPSPCNVLMLYPLFTAESFWSFGESCKLMGVKRPAAPLGLITVAAMLPADWTVRLIDCNTSPLGDEDLAWADVVFTGGMLPQQADTLRLIELCRAAGKPVVVGGPDPTSSPHIYERADFRVLGEAESVIDEFIAAWEGGARSGVFTAPKFQADVTRTPVPRFDLLKFEDYLYIGVQYSRGCPFTCEFCDIIELYGRVPRTKTAEQMFVELETLYRMGYRGHLDFVDDNFIGNKKSLRLFLPQLAEWQRAHGYPFEFSTEASINLADDPELLEQMGAANFFGIFVGIESPDPATLVAMRKKQNTRRNIAESIHKIYAAGILVTAGFIVGFDNEKVSMAEAMIEFIEEAAIPVSMVGLLYALPNTQLTRRLEREGRLHPGHDLAPTIGADQCTDGINFDPVRPLRDILMDYKRVLERIYSPAAYAGRIDRLMTLLDRSRQRHALAEGDIRAKLGAMETVHRVVTAIPEARGPLWQTFMNCAKRDTSSARIAVQMIAAYAHLGPFSRKVIDAIDARLAALDDETVIPAATIDATAARHLA | failed
MDYATNCASLPKWHKVPLLSVCIPAYNRPQGLVAAVRSVVAALPREYHDQVEIVITDDSATRTAVDDLLAPWSGHWHYQHNAQRLGMVANWNTSLAKACGEFILLLHDDDYLLPQGITTILATLSQYGSQFDVFLFGVHLVDSHQRCLRRQIPRRQEWLSPAQALRQLLRHSSLVRFPALIWRRSLLDAVGYFDPTYGEATDLYQWLRFFAQKGVYTVPCATAAYRIHDQALTMGMFQAQTLATLGRIFAAAADLSLLSPAELRHCQCDFFHQFILAGTWRFLRRRQWQRAQAVYQLFDLPEVIALGRSRRWQGLRWLLGSWLWLLQQLSS | failed
